Measured values as given in patent US20200199533A1 (KING ABDULLAH UNIVERSITY OF SCIENCE AND TECHNOLOGY, published 2020).

How the values were obtained:
[1] = biological target: T1, CD43, native glycoprotein from KG1a cells (human, UniProt P16150 20-400, native glycosylation); assay: SPR; CD43 captured from KG1a lysate on polyclonal CD43 Ab, E-Ig injected, 150 mM NaCl; apparent rate constant; mean ± SEM
T1 construct: mature
T1 sequence (looked up): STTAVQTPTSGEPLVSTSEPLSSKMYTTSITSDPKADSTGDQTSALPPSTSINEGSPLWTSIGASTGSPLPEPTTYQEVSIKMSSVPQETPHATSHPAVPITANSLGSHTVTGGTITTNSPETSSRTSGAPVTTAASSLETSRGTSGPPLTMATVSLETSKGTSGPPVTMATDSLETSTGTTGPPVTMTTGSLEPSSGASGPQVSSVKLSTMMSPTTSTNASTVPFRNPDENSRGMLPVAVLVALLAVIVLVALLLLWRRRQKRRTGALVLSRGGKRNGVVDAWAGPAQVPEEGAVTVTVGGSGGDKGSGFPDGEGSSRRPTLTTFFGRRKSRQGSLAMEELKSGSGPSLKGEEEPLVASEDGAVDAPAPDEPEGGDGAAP

[2] = biological target: T2, CD34, native glycoprotein from human HSPCs (KG1a, CD34^pos-BM, CD34^pos-UCB, CD34^pos-AML) (human, UniProt P28906 32-385, native glycosylation (about 120-130 kDa form); sialylated O-glycans and tyrosine sulfation are shown to matter for selectin binding); assay: SPR; CD34 captured from KG1a lysate on 563-mAb, E-Ig injected (3.9-2000 nM), 150 mM NaCl; steady-state model; 1st experiment
T2 construct: mature; also called E-selL CD34
T2 sequence (looked up): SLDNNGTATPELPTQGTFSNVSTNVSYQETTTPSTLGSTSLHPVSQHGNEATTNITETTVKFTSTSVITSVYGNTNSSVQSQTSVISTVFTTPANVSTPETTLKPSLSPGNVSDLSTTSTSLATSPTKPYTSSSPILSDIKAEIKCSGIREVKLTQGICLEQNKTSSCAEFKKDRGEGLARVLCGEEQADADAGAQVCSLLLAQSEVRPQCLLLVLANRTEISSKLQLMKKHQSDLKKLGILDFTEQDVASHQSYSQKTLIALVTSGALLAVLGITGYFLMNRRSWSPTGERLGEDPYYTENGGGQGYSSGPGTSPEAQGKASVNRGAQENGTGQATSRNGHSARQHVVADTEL

[3] = biological target: T2, CD34, native glycoprotein from human …; assay: SPR; CD34 captured from KG1a lysate on 563-mAb, E-Ig injected, 150 mM NaCl; apparent rate constant; mean ± SEM
[4] = biological target: T2, CD34, native glycoprotein from human …; assay: SPR; CD34 captured from CD34^pos-BM lysate on 563 mAb; apparent rate constant after the last E-Ig injection
[5] = biological target: T3, PSGL-1, native glycoprotein from human HSPCs (KG1a, CD34^pos-BM) (human, UniProt Q14242 42-412, native glycosylation and tyrosine sulfation); assay: SPR; PSGL-1 captured from KG1a lysate on KPL-1-mAb, E-Ig injected (3.9-2000 nM), 150 mM NaCl; steady-state model; mean ± SEM
T3 construct: mature; also called P-selectin glycoprotein ligand-1
T3 sequence (looked up): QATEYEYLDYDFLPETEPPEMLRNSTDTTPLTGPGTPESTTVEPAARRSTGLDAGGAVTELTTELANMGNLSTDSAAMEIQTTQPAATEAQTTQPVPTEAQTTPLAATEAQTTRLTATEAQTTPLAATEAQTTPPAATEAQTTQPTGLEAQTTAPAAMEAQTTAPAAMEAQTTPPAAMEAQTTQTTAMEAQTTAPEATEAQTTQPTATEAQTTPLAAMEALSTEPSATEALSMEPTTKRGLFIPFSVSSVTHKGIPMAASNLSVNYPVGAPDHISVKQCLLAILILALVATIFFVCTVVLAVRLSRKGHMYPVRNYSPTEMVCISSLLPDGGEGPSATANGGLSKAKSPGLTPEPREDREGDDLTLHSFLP

[6] = biological target: T2, CD34, native glycoprotein from human …; assay: SPR; CD34 captured from KG1a lysate on 563-mAb, E-Ig injected (3.9-2000 nM), 150 mM NaCl; steady-state model; 2nd experiment
[7] = biological target: T1, CD43, native glycoprotein from KG1a …; assay: SPR; CD43 captured from KG1a lysate on polyclonal CD43 Ab, E-Ig injected, 150 mM NaCl; apparent rate constant; 2nd experiment
[8] = biological target: T2, CD34, native glycoprotein from human …; assay: SPR; CD34 captured from CD34^pos-BM lysate on 563 mAb, E-Ig injected, 50 mM NaCl; steady-state model
[9] = biological target: T1, CD43, native glycoprotein from KG1a …; assay: SPR; CD43 captured from KG1a lysate on polyclonal CD43 Ab, E-Ig injected (3.9-2000 nM), 150 mM NaCl; steady-state model; 1st experiment
[10] = biological target: CD44 (HCELL), native glycoprotein from human HSPCs (KG1a, CD34^pos fraction) (human) (UniProt P16070); assay: SPR; CD44 captured from KG1a lysate on Hermes-3-mAb, E-Ig injected, 150 mM NaCl; apparent rate constant; 3rd experiment
CD44 (HCELL), native glycoprotein from human HSPCs (KG1a, CD34^pos fraction) (human), sequence (P16070 21-742): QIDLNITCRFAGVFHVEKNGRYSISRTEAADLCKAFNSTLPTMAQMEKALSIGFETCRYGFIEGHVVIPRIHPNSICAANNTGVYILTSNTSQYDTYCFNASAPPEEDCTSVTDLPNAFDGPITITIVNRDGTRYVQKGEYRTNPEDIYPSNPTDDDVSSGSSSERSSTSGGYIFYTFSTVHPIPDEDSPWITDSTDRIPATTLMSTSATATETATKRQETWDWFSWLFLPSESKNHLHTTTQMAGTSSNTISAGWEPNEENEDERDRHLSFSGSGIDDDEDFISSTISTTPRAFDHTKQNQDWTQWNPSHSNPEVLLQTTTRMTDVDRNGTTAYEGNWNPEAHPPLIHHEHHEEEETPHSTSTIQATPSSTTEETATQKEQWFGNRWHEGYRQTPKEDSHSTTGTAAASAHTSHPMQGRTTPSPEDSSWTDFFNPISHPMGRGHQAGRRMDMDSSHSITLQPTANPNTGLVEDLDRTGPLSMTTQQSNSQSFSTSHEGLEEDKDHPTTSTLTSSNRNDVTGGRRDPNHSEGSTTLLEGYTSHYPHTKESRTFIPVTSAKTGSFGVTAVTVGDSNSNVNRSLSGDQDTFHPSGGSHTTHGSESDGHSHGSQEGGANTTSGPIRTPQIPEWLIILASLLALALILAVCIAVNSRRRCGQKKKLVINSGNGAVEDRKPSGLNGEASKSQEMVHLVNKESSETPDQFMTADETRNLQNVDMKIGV

B1: recombinant E-selectin human immunoglobulin chimeric protein (Fc fusion)
chain: WSYNTSTEAMTYDEASAYCQQRYTHLVAIQNKEEIEYLNSILSYSPSYYWIGIRKVNNVWVWVGTQKPLTEEAKNWAPGEPNNRQKDEDCVEIYIKREKDVGMWNDERCSKKKLALCYTAACTNTSCSGHGECVETINNYTCKCDPGFSGLKCEQIVNCTALESPEHGSLVCSHPLGNFSYNSSCSISCDRGYLPSSMETMQCMSSGEWSAPIPACNVVECDAVTNPANGFVECFQNPGSFPWNTTCTFDCEEGFELMGAQSLQCTSSGNWDNEKPTCKAVTCRAVRQPQNGSVRCSHSPAGEFTFKSSCNFTCEEGFMLQGPAQVECTTQGQWTQQIPVCEAFQCTALSNPERGYMNCLPSASGSFRYGSSCEFSCEQGFVLKGSKRLQCGPTGEWDNEKPTCEAVRCDAVHQPPKGLVRCAHSPIGEFTYKSSCAFSCEEGFELHGSTQLECTSQGQWTEEVPSCQVVKCSSLAVPGKINMSCSGEPVFGTVCKFACPEGWTLNGSAARTCGATGHWSGLLPTCEAPTESNIP
In the case of B1, the koff [1] is reported as 0.00045 s⁻¹, the Kd [2] is reported as 145 nM and the koff [3] is reported as 0.00026 s⁻¹. It also gave a kon [3] of 1230 M⁻¹ s⁻¹, a koff [4] of 0.00019 s⁻¹ and a Kd [5] of 259 nM. For the same binder, the Kd [6] was 268 nM, the koff [7] was 0.00042 s⁻¹ and the kon [7] was 1060 M⁻¹ s⁻¹. It also gave a Kd [8] of 261 nM, a Kd [9] of 509 nM and a koff [10] of 0.000273 s⁻¹. It also gave a kon [10] of 1280 M⁻¹ s⁻¹.
